From patent publication US20160040149A1, “Compositions Having Dicamba Decarboxylase Activity and Methods of Use” (priority 2013, published 2016)

Experiments:
[1] = Dicamba decarboxylase activity / product analysis with purified His-tag protein (14C assay and product detection of Example 1); assay type: biochemical; conditions: for other products (than 2,5-DCA) / reaction products detected: purified protein, dicamba substrate; for dicamba decarboxylase activity: statement of the description; for dicamba decarboxylase activity relative to parent sequence: computationally designed variants
Experimental: To obtain purified protein for activity assays, IPTG-induced cells were harvested by centrifugation at 7,000 rpm for 10 mins Cell pellet from 50 mL of cell culture was frozen and thawed twice and then lysed in 8004 lysis buffer consisting of 50 mM potassium phosphate buffer (pH7.0), 50 μM ZnSO4, 5% EG, 50 mM KCl, 1 mM DTT, 0.2 mg/ml lysozyme, 1/200 protease inhibitor cocktail (EMD set3, EDTA free), and 1/2,000 endonuclease. Lysate was then centrifuged at 13,000 rpm for 45 min at 4° C. Supernatant was loaded onto 200 μL Ni-NTA columns pre-equilibrated with 10 mM His Buffer containing 25 mM potassium phosphate buffer pH7, 50 μM ZnSO4, 5% EG, 200 mM KCl, and 10 mM histidine. The columns were let sit at 4° C. until the entire supernatant passed through. Each column was then washed with 200 ul 10 mM His Buffer twice and then 4 times with 800 ul loading buffer consisting of 25 mM potassium phosphate buffer pH7, 50 μM ZnSO4, 5% EG, 200 mM KCl. Protein was eluted with 1504 of Elution Buffer consisting of 25 mM potassium phosphate buffer pH7, 50 μM ZnSO4, 5% EG, 100 mM KCl, 100 mM histidine, 10% glycerol. The protein concentration was measured by Bradford assay. Purified protein was used for dicamba decarboxylase activity measurement as described in Example 1. Enzyme kinetic characterization of selected dicamba decarboxylases was determined through GC/MS measurement of 2,5-DCP or PEPC coupled assay as described in Example 1.

[2] = Saturation mutagenesis of SEQ ID NO:109: dicamba decarboxylation activity of point mutants (CO2 released), fold of backbone (Tables 7, 8, Megatable 1); conditions: decarboxylation activity (CO2 released) of point mutant vs unmutated backbone protein; backbone SEQ ID NO: 109
[3] = GC/MS detection of decarboxylation product 2,5-DCA (toluene trapping or head space); assay type: biochemical; conditions: purified protein, dicamba substrate
Experimental: Alternatively, dicamba decarboxylase activity can be monitored by measuring decarboxylation products other than CO2 using product detection methods. The decarboxylation product of dicamba, 2,5-dichloro anisole or 2,5-DCA (FIG. 1C), is a volatile compound with a flash point of 21° C. To capture this volatile compound for detection, 140 ul of toluene solution is added on top of 1 ml reaction mixture to form a trapping layer in a 1.5 ml eppendorf tube. […] The reaction is kept still at room temperature overnight before being vortex mixed and centrifuged at 14,000 rpm for 15 minutes. The top toluene phase is carefully removed using a micropipette and transferred into a 12×32 mm polypropylene vial (Vial 11 mm) from MicroLiter Analytical Supplies, Inc. (catalog number 11-5300-100). The vial is sealed with Crimp seal (11 mm with FEP/Nat Rubber) from MicroLiter Analytical Supplies, Inc. (catalog number 11-0020A) using a E-Z Crimper™ 11 mm from Wheaton Inc. lul of the toluene mixture is taken from the sealed vials and injected in splitless mode into a GC/MS system for sample analysis (Agilent GC/MS system with a 6890A GC, a 5973N MSD and a CTC CombiPAL auto-sampler or with a 7890A GC, a 5975C MSD and an Agilent GC Sampler 80 auto-sampler). The GC parameters are: Agilent DB-5MS column (30 m length, 0.25 mm diameter, 0.25 um film) or equivalent; The GC inlet temperature, 250° C.; Carry gas, helium in constant flow mode (1.2 mL/min); The GC oven temperature program, initial temperature at 70° C. for 1 min, ramping to 200° C. at 15° C./min, and then ramping to 250° C. at 30° C./min. MS data acquisition is done in SIM (selected ion monitoring) mode, monitoring the positive ion at M/Z 176 for the molecular ion of […]. The solvent delay for MS acquisition is set at 4 min. Another method for detection of 2,5-DCA is a head-space GC/MS method. Briefly, reaction mixtures in 500 ul reaction volume are prepared in 1.5 ml 12×32 mm glass vials (Microliter Analytical Supplies, Cat#11-1200) for head space analysis. Glass vials are sealed with magnetic cap from MicroLiter Analytical Supplies, Inc. (catalog number 11-0030AT) using a E-Z Crimper™ 11 mm from Wheaton Industries Inc. The reaction is carried out at room temperature for various amount of time and stopped by heating at 95° C. for 5 min. The reaction vial is transferred to a agitator for incubation at 80° C. for 5 min at 500 rpm. With a syringe preheated at 80° C., 1000 uL of head space is injected with sample fill speed at 100 uL/sec. GC/MS parameters for headspace analysis are the same as for liquid sample analysis.

Row | Molecule | other products (than 2,5-DCA) [1] | dicamba decarboxylase activity [1] | Fold Activity [2] [fold] | minor decarboxylation product 2,5-DCA [3] | dicamba decarboxylase activity relative to parent sequence [1] | reaction products detected [1]
1 | 117 (protein, Dicamba decarboxylase variant clone: DC.5.008) MAKKPRIDMHSHFFPRISEQEAAKFDANHAPWLQVSAKGDTGSIMMGKNNFRPVYQALWDPAFRIEEMDAQGVDVQVTCATPVMFGYTWEANKAAQWAERMNDFALEFAAHNPQRIKVLAQVPLQDLDLACKEASRAVAAGHLGIQIGNHLGDKDLDDATLEAFLTHCANEDIPILVHPWDMMGGQRMKKWMLPVLVAAPAEVQLAILSLILSGAFERIPKSLKICFAGGGGSFAFLLGIVDLAWRHRDIVREDCPRPPSEYVDRFFVDSLVFNPGALELLVSVMGEDRVMLGSDYPFPTGEQKIGGLVLSSNLGESAKDKIISGNASKFFNINV | not detected | shown herein to have dicamba decarboxylase activity | 1.8 | detected |  | 
2 | 95 (protein, listed as Pseudomonas fluorescens) MAKKPRIDMHSHFFPRISEQEAAKFDANHAPWLQVSAKGDTGSIMMGKNNFRPVYQALWDPAFRIEEMDAQGVDVQVTCATPVMFGYTWEANKAAQWAERMNDFALEFAAHNPQRIKVLAQVPLQDLDLACKEASRAVAAGHLGIQIGNHLGDKDLDDATLEAFLTHCANEDIPILVHPWDMMGGQRMKKWMLPWLVAMPAETQLAILSLILSGAFERIPKSLKICFGHGGGSFAFLLGRVDNAWRHRDIVREDCPRPPSEYVDRFFVDSAVFNPGALELLVSVMGEDRVMLGSDYPFPLGEQKIGGLVLSSNLGESAKDKIISGNASKFFNINV |  | Neither of the native proteins have dicamba decarboxylase activity | 1.4 |  |  | 
3 | 118 (protein, Dicamba decarboxylase variant clone: DC.5.033) MAKKPRIDMHSHFFPRISEQEAAKFDANHAPWLQVSAKGDTGSIMMGKNNFQPVYQALWDPAFRIEEMDAQGVDVQVTCATPVMFGYTWEANKAAQWAERMNDFALEFAAHNPQRIKVLAQVPLQDLDLACKEASRAVAAGHLGIQIGNHLGDKDLDDATLEAFLTHCANEDIPILVHGTDMMGGQRMKKWGLPWLVALAAEVQLAILSLILSGAFERIPKSLKICFSHGGGSFAFLLGLVDEAWRHVDIVREDCPRPPSEYVDRFFVDSVGNPGALELLVSVMGEDRVMLGSDYPHTTGEQKIGGLVLSSNLGESAKDKIISGNASKFFNINV | not detected | shown herein to have dicamba decarboxylase activity | 1.4 | detected |  | 
4 | 119 (protein, Dicamba decarboxylase variant clone:DC.5.034) MAKKPRIDMHSHFFPRISEQEAAKFDANHAPWLQVSAKGDTGSIMMGKNNFQPVYQALWDPAFRIEEMDAQGVDVQVTCATPVMFGYTWEANKAAQWAERMNDFALEFAAHNPQRIKVLAQVPLQDLDLACKEASRAVAAGHLGIQIGNHLGDKDLDDATLEAFLTHCANEDIPILVHGWDMMGGQRMKKWGLYWLVAHHAEVQLAILSLILSGAFERIPKSLKICFSHGGGSFAFTLGWVDEAWRHVDIVREDCPRPPSEYVDRFFVDSVGNPGALELLVSVMGEDRVMLGSDYPLTTGEQKIGGLVLSSNLGESAKDKIISGNASKFFNINV | not detected | shown herein to have dicamba decarboxylase activity | 1.6 | detected |  | 
5 | 111 (protein, Dicamba decarboxylase variant clone: DC.4.112) MAQGKVALEEHFAIPETLQDSMGFVPGDYWKELMHRLLDIQDTRLKLMDAHGIETMILSLNAPAVQAIPDRRKAIEIARRANDVLAEECAKRPDRFLAFAALPLQDPDAATEELQRCVNDLGFVGALVNGFSQEGDGQTPLYYDLPQYRPFWGEVEKLDVPFYLHPRNPLPQDSRIYDGHPWLLGPTWAFAQETAVHALRLMASGLFDEHPRLNIILGHMGEGLPYMMWRIDHRMAWIKLPPRYPAKRRFMDYFNENFHITTSGNFRTQTLIDAILEIGADRILFSTDWPFENIDHASDWFNATSIAEADRVKIGRTNARRLFKLDGA |  |  | 1.2 |  | displays an increase in dicamba decarboxylase activity | three major products (CO2, 4-chloro-3-methoxy phenol, and 2,5-DCP) detected
6 | 112 (protein, Dicamba decarboxylase variant clone: DC.4.113) MAQGKVALEEHFAIPETLQDSAGFVPGDYWKELVHRLLDIQDTRLKLMDAHGIETMILSLNAPAVQAIPDRRKAIEIARRANDVLAEECAKRPDRFLAFAALPLQDPDAATEELQRCVNDLGFVGALVNGFSQEGDGQTPLYYDLPQYRPFWGEVEKLDVPFYLHPRNPLPQDSRIYDGHPWLLGPTWAFAQETAVHALRLMASGLFDEHPRLNIILGHMGEGLPYMMWRIDHRVAWVKLPPRYPAKRRFMDYFNENFHITTSGNFRTQTLIDAILEIGADRILFSTDWPFENIDHASDWFNATSIAEADRVKIGRTNARRLFKLDGA |  |  | 1.2 |  | displays an increase in dicamba decarboxylase activity | three major products (CO2, 4-chloro-3-methoxy phenol, and 2,5-DCP) detected
7 | 113 (protein, Dicamba decarboxylase variant clone: DC.4.114) MAQGKVALEEHFAIPETLQDSAGFVPGDYLKELFHRLLDIQDTRLKLMDAHGIETMILSLNAPAVQAIPDRRKAIEIARRANDVLAEECAKRPDRFLAFAALPLQDPDAATEELQRCVNDLGFVGALVNGFSQEGDGQTPLYYDLPQYRPFWGEVEKLDVPFYLHPRNPLPQDSRIYDGHPWLLGPTWAFAQETAVHALRLMASGLFDEHPRLNIILGHMGEGLPYMMWRIDHRVAWVKLPPRYPAKRRFMDYFNENFHITTSGNFRTQTLIDAILEIGADRILFSTDWPFENIDHASDWFNATSIAEADRVKIGRTNARRLFKLDGA |  |  | 1.4 |  | displays an increase in dicamba decarboxylase activity | three major products (CO2, 4-chloro-3-methoxy phenol, and 2,5-DCP) detected
8 | 100 (protein, listed as Reinekea blandensis) MAIIDCHGHYTTTPKGVEDYRNAQKAAVAKDPSFKGEKGQVVVSDDEIRESIENNQLKMQRERGTDLTIFSPRASWMGHHIGNEYTSQFWTEHQNDLIRRVCDLFPKNFAPVAQLPQSPGVDPAKSVPEIVRTVEQMGFIGINLNPDPSGGYWKDTSLADRAFYPIYEKMVEYDIPAMIHVSAACNDCFHTTGSHYLGADTTGFQQLIMSDVFKDFPSLKIIIPHGGGAVPYHWGRFRGLMQDQGYAPLEESALKNIYFDTCVYHQRGIDLLLDIVPTQNILFASEMIGAVRGIDPETGHNFDDTKRYIDNNTALNAEEKAMIFEGNARRVFSRLKTD |  | Neither of the native proteins have dicamba decarboxylase activity | 2.5 |  |  | 
